Results published in article PMC12700824 (2025).

Biological target: FAM118B24–334-F122R (human, UniProt Q9BPY3 24-334, F122R)
Assay: ITC

Kd: 233 nM
B1: FAM118B24–334-L32R (domain or fragment)
chain: PTKKPRKLRPSLKTKKPRELVLVIGTGISAAVAPQVPALKSWKGLIQALLDAAIDFDLLEDEESKKFQKCLHEDKNLVHVAHDLIQKLSPRTSNVRSTFFKDCLYEVFDDLESKMEDSGKQLLQSVLHLMENGALVLTTNFDNLLELYAADQGKQLESLDLTDEKKVLEWAQEKRKLSVLHIHGVYTNPSGIVLHPAGYQNVLRNTEVMREIQKLYENKSFLFLGCGWTVDDTTFQALFLEAVKHKSDLEHFMLVRRGDVDEFKKLRENMLDKGIKVISYGDDYADLPEYFKRLTCEISTRGTSAGMVREG
